Assay results: IntAct's records for PubMed 12502741

B1: Retinoblastoma-associated protein (Homo sapiens), P06400 (parent)
chain: MPPKTPRKTAATAAAAAAEPPAPPPPPPPEEDPEQDSGPEDLPLVRLEFEETEEPDFTALCQKLKIPDHVRERAWLTWEKVSSVDGVLGGYIQKKKELWGICIFIAAVDLDEMSFTFTELQKNIEISVHKFFNLLKEIDTSTKVDNAMSRLLKKYDVLFALFSKLERTCELIYLTQPSSSISTEINSALVLKVSWITFLLAKGEVLQMEDDLVISFQLMLCVLDYFIKLSPPMLLKEPYKTAVIPINGSPRTPRRGQNRSARIAKQLENDTRIIEVLCKEHECNIDEVKNVYFKNFIPFMNSLGLVTSNGLPEVENLSKRYEEIYLKNKDLDARLFLDHDKTLQTDSIDSFETQRTPRKSNLDEEVNVIPPHTPVRTVMNTIQQLMMILNSASDQPSENLISYFNNCTVNPKESILKRVKDIGYIFKEKFAKAVGQGCVEIGSQRYKLGVRLYYRVMESMLKSEEERLSIQNFSKLLNDNIFHMSLLACALEVVMATYSRSTSQNLDSGTDLSFPWILNVLNLKAFDFYKVIESFIKAEGNLTREMIKHLERCEHRIMESLAWLSDSPLFDLIKQSKDREGPTDHLESACPLNLPLQNNHTAADMYLSPVRSPKKKGSTTRVNSTANAETQATSAFQTQKPLKSTSLSLFYKKVYRLAYLRLNTLCERLLSEHPELEHIIWTLFQHTLQNEYELMRDRHLDQIMMCSMYGICKVKNIDLKFKIIVTAYKDLPHAVQETFKRVLIKEEEYDSIIVFYNSVFMQRLKTNILQYASTRPPTLSPIPHIPRSPYKFPSSPLRIPGGNIYISPLKSPYKISEGLPTPTKMTPRSRILVSIGESFGTSEKFQKINQMVCNSDRVLKRSAEGSNPPKPLKKLRFDIEGSDEADGSKHLPGESKFQQKLAEMTSTRTRMQKQKMNDSMDTSNKEEK

Variants of: B1
Conditions: with e2f1_human E2F1, Q01094
Sequence of e2f1_human E2F1, Q01094 (Q01094 whole entry): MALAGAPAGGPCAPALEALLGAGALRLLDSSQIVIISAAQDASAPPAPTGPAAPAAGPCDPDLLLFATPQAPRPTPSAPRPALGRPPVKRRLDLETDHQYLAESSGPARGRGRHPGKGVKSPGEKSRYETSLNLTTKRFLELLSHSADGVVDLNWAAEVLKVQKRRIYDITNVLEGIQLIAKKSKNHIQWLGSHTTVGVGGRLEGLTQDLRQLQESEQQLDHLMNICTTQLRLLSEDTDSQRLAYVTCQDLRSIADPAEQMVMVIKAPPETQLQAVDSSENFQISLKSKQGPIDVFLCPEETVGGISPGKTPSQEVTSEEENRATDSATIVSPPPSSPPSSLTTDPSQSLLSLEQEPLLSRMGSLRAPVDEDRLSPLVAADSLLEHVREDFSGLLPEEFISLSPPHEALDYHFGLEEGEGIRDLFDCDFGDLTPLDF

Effect of a mutation on the interaction, decreasing interaction strength:
F482A
R467A
K653A
E554A
